Measurements from publication PMC10907724, “Optineurin provides a mitophagy contact site for TBK1 activation” (The EMBO Journal, 2024).

B1: recombinant OPTN monobody clone #3 (His6-tagged) (designed binder)
chain: VSDVPRDLEVVAATPTSLLISWDAPWWWDYGYMYYRITYGETGGNSPVQEFTVPGSKSTATISGLKPGVDYTITVYAWDVAEWVTKVATSWPISINYRT
B2: recombinant OPTN monobody clone #4 (His6-tagged) (designed binder)
chain: VSDVPRDLEVVAATPTSLLISWDAPWFWYFPYYYQEWYYRITYGETGGNSPVQEFTVPGSKSTATISGLKPGVDYTITVYAAMELKGIQEYRNPISINYRT
B3: GST-TBK1 (677–729 aa) (domain or fragment, UniProt Q9UHD2 677-729, looked up)
chain: YPSSNTLVEMTLGMKKLKEEMEGVVKELAENNHILERFGSLTMDGGLRNVDCL
notes: Plasmid pGEX6P1_opt-TBK1 (677–729aa); also called GST-tagged TBK1 (677–729 aa); GST-TBK chimera; source: E. coli BL21-CodonPlus(DE3)-RIL, purified (glutathione Sepharose); not shown: GST, N-terminal, kept

Key:
[1] = target: T1, biotinylated OPTN (26–196 aa) (UniProt Q96CV9 26-196, NH2-GGG(Lys[Biotin])-CONH2 joined at the C-terminal sortase recognition sequence by Sortase 5Y); assay: BLI; biotinylated OPTN (26–196 aa) immobilised on a streptavidin biosensor (Octet); monobody as analyte at various concentrations; 30 °C; 50 mM Hepes-KOH pH 7.5, 300 mM NaCl, 0.05% Tween 20, 0.1% PEG6000; association 600 s, dissociation 600 s; global fitting; conditions: both partners purified
T1 construct: also called Biotin-modified OPTN; not shown: GST, N-terminal, cleaved; His6, C-terminal, cleaved; biotin (GGGK-biotin), C-terminal, kept
T1 sequence (Q96CV9 26-196): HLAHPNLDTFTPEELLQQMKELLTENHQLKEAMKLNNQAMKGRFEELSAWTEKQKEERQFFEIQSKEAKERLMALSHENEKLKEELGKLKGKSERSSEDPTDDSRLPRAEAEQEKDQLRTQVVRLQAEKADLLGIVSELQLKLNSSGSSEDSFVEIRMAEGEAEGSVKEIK

[2] = target: T2, OPTN (26–196 aa)-EGFP with E50K (UniProt Q96CV9 26-196, E50K); assay: pull-down; recombinant GST-TBK1 (677–729 aa), OPTN (26–196 aa)-EGFP or EGFP alone, and monobodies, 4.5 μM each, with glutathione Sepharose in 50 mM Tris–HCl pH 7.5, 120 mM NaCl, 1 mM TCEP, 10% glycerol, 30 min at room temperature; washes with 0.1% Triton X-100; CBB staining; conditions: both partners purified
T2 construct: source: E. coli BL21-CodonPlus(DE3)-RIL, purified (Ni-NTA); not shown: EGFP, C-terminal, kept
T2 sequence (Q96CV9 26-196 E50K): as the sequence (Q96CV9 26-196) above, with E25K counted along it

Binder | Kd [1] [nM] | binding result [2]
B1 | 4.56 | 
B2 | 6.19 | 
B3 |  | binds
